Our source for the OD values is patent US20260000597A1 (priority 2018, published 2026).

The test addresses AchR (Homo sapiens, UniProt P02708). As to the kind of experiment: ELISA of screened peptide phages on AchR versus streptavidin (OD450). The class given is binding. The conditions noted are these: absorbance at 450 nm. The gist of the method:
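Phage supernatants from 4th–5th round plaques, in 2% BSA, applied 1 h at 30 °C to wells coated with 5 μg/ml AchR or streptavidin. Bound phage detected with HRP anti-M13 and TMB at OD450; value given as AchR/streptavidin signal ratio.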
(In general: In an ELISA, binding on a coated surface is turned into a signal by an enzyme label.)

Setting [1] is: ELISA of selected 14-mer (L3) peptide phages on AchR, Spep-2 positive control.
[2] abbreviates: ELISA of selected 11-mer (L2) peptide phages on AchR, Spep-2 positive control.
[3] abbreviates: phage ELISA, 5 μg/ml AchR, 4th and 5th round biopanning phages.

AchR, sequence (P02708 21-457): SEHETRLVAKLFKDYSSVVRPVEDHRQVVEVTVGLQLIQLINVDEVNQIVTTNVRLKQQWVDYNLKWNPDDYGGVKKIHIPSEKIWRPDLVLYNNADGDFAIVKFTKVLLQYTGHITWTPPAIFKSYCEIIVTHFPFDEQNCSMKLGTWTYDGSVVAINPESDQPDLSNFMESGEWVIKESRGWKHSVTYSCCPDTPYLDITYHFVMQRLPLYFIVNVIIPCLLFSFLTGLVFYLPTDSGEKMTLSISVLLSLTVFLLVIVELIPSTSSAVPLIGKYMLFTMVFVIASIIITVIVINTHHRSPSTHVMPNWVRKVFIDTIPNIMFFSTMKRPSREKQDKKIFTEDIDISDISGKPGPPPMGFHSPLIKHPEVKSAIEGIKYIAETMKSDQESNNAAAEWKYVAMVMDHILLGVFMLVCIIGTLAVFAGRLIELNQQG

For “L3-7 (EGDKFRRHDIKYNF; AchR binding peptide) [Peptide L3-7]”, under setting [1], the OD is recorded as 0.803.

In the case of “L3-75 (QIPKQKKQEQRAIS; AchR binding peptide) [Peptide L3-75]”, under setting [1], the OD is 0.72.

Under setting [1], “L3-74 (IAIRPRKMTLKIHP; AchR binding peptide) [Peptide L3-74]” returned an OD of 0.726.

On to “L3-95 (SISRLRKAHQKFIP; AchR binding peptide) [Peptide L3-95]”, for which, under setting [1], the OD stood at 0.657.

For the substance “L2-24 (SFWRERKNGFR; AchR binding peptide) [Peptide L2-24]”, the OD under setting [2] is on record as 0.812.

Consider “L3-112 (ALPRVRKDSHREEI; AchR binding peptide) [Peptide L3-112]”, for which the OD under setting [1] came out at 0.731.

Under setting [2], “L2-6 (PELKCKRMIGR; AchR binding peptide) [Peptide L2-6]” returned an OD of 0.78.

“L2-11 (GIPKYRRGCSR; AchR binding peptide) [Peptide L2-11]” returned an OD under setting [2] of 0.791.

Substance KMRRVAPR [Peptide L1-176] showed an OD under setting [3] of 0.479.

As for “L3-3 (SGVRYRKWWIRSVV; AchR binding peptide) [Peptide L3-3]”, under setting [1], the OD was 0.88.

RGRRGTMR [Peptide L1-93] displayed an OD under setting [3] of 0.616.

As to “L3-58 (SLPKWRKGGDRVFT; AchR binding peptide) [Peptide L3-58]”, the OD under setting [1] is 0.664.

With “L3-164 (QINRVKKSDAKFCT; AchR binding peptide) [Peptide L3-164]”, the OD under setting [1] was 0.746.

For “L3-68 (YSSKSRKLSPRTPR; AchR binding peptide) [Peptide L3-68]”, under setting [1], the OD stood at 0.792.

In the case of “L3-191 (GINRGRKVSPKDEQ; AchR binding peptide) [Peptide L3-191]”, the OD under setting [1] is listed as 0.739.

“L2-66 (PNYKWRKSRRR; AchR binding peptide) [Peptide L2-66]” gave an OD under setting [2] of 0.798.

Consider “L3-144 (CSYKLRRCDMRLWG; AchR binding peptide) [Peptide L3-144]”, for which the OD under setting [1] is recorded as 0.578.

The substance KTKKAAER [Peptide L1-178] yielded an OD under setting [3] of 0.625.

Substance KWKRNCTK [Peptide L1-65] returned an OD under setting [3] of 0.585.

“L3-6 (EFVKLRKARLRGPQ; AchR binding peptide) [Peptide L3-6]” registered an OD under setting [1] of 0.77.

In turn, “L2-148 (DSNKVRKCSSK; AchR binding peptide) [Peptide L2-148]” displayed an OD under setting [2] of 0.604.

Under setting [2], “L2-5 (TQQRLKRVMEK; AchR binding peptide) [Peptide L2-5]” displayed an OD of 0.752.

Substance KCRKTMGR [Peptide L1-123] came in with an OD under setting [3] of 0.409.

Under setting [3], RVKKAETR [Peptide L1-92] returned an OD of 0.581.

In the case of “L3-100 (LEERPKKHCAKNHC; AchR binding peptide) [Peptide L3-100]”, under setting [1], the OD turned out to be 0.572.

Consider “L3-163 (PFTKMRKQFQRMSA; AchR binding peptide) [Peptide L3-163]”, for which the OD under setting [1] came to 0.78.

For the substance RQRRNDMK [Peptide L1-9], the OD under setting [3] turned out to be 0.639.

Take KGKRTGCK [Peptide L1-126]: under setting [3], the OD was 0.362.

The substance KPKRSAPR [Peptide L1-125] yielded an OD under setting [3] of 0.345.

With REKKYAYK [Peptide L1-181], the OD under setting [3] is 0.589.

Substance “L2-23 (QTYRLKKPLQK; AchR binding peptide) [Peptide L2-23]” displayed an OD under setting [2] of 0.832.

RIRRGSVR [Peptide L1-57] displayed an OD under setting [3] of 0.408.

“L3-181 (GPCRPRRHSIRLLW; AchR binding peptide) [Peptide L3-181]” displayed an OD under setting [1] of 0.624.

For the substance KPKREMHK [Peptide L1-79], the OD under setting [3] was 0.583.

As for KGKKLSQR [Peptide L1-75], under setting [3], the OD is given as 0.581.

Under setting [2], “L2-162 (NCDRTRKHWAR; AchR binding peptide) [Peptide L2-162]” registered an OD of 0.584.

RPRRTHIK [Peptide L1-6] yielded an OD under setting [3] of 0.652.

Under setting [2], “L2-161 (AWFRVKRSNCR; AchR binding peptide) [Peptide L2-161]” displayed an OD of 0.579.

Substance “L3-120 (FLYKAKKALMRDSL; AchR binding peptide) [Peptide L3-120]” showed an OD under setting [1] of 0.887.

For the substance RARKESHK [Peptide L1-166], the OD under setting [3] stood at 0.649.

The substance REKKQEVK [Peptide L1-150] displayed an OD under setting [3] of 0.457.

Turning to “L2-7 (WQMKTKKEIWK; AchR binding peptide) [Peptide L2-7]”, the OD under setting [2] is on record as 0.753.

The substance “L3-69 (CVNRVKKSDSKGTW; AchR binding peptide) [Peptide L3-69]” gave an OD under setting [1] of 0.733.

As for “L2-2 (GIWKFRRNQCK; AchR binding peptide) [Peptide L2-2]”, under setting [2], the OD is on record as 0.749.

As to “L3-18 (EYQKCKKPSFRLTM; AchR binding peptide) [Peptide L3-18]”, the OD under setting [1] worked out at 0.806.

In turn, “L3-176 (MIGKCRKCGTKCYA; AchR binding peptide) [Peptide L3-176]” displayed an OD under setting [1] of 0.739.

In turn, “L2-147 (TWCKHKKLDMK; AchR binding peptide) [Peptide L2-147]” yielded an OD under setting [2] of 0.641.

For “L2-141 (SSHKGKRAQSK; AchR binding peptide) [Peptide L2-141]”, the OD under setting [2] is reported as 0.462.

Turning to “L3-162 (ANWRTRRDLAKEHV; AchR binding peptide) [Peptide L3-162]”, under setting [1], the OD is listed as 0.781.

For the substance KGKKYYQK [Peptide L1-105], under setting [3], the OD amounted to 0.507.

The substance “L2-124 (NVVRGRRLECR; AchR binding peptide) [Peptide L2-124]” showed an OD under setting [2] of 0.556.

In the case of “L2-184 (MHQRERRNFVK; AchR binding peptide) [Peptide L2-184]”, under setting [2], the OD came out at 0.736.

As to KSRKHCNR [Peptide L1-70], the OD under setting [3] is 0.668.

Consider “L2-41 (AEVKDKKAYYK; AchR binding peptide) [Peptide L2-41]”, for which the OD under setting [2] is reported as 0.568.

As to KWKKMMER [Peptide L1-81], the OD under setting [3] was determined as 0.63.

Consider “L3-142 (LQCKYRRGSDKTVV; AchR binding peptide) [Peptide L3-142]”, for which the OD under setting [1] worked out at 0.502.

For “L3-23 (QYHKVRKLWFRVEP; AchR binding peptide) [Peptide L3-23]”, the OD under setting [1] is reported as 0.799.

Turning to “L3-34 (LGWKKRKSLLRRHV; AchR binding peptide) [Peptide L3-34]”, the OD under setting [1] amounted to 0.74.

In turn, KDKKTPCK [Peptide L1-193] displayed an OD under setting [3] of 0.588.

Regarding KDKKQWGR [Peptide L1-114], the OD under setting [3] came out at 0.42.

Under setting [3], KTRKQDHR [Peptide L1-172] came in with an OD of 0.631.

In turn, KSRKWGWR [Peptide L1-39] returned an OD under setting [3] of 0.509.

Turning to “L3-63 (CPWRNRKAMIKGII; AchR binding peptide) [Peptide L3-63]”, the OD under setting [1] was determined as 0.794.

Turning to “L3-57 (EEIKQKKLHLRVWF; AchR binding peptide) [Peptide L3-57]”, the OD under setting [1] worked out at 0.674.

Under setting [3], KWRRNGQR [Peptide L1-98] showed an OD of 0.54.

Under setting [1], “L3-31 (LSDKKRKSLLRYDY; AchR binding peptide) [Peptide L3-31]” came in with an OD of 0.763.

With “L2-134 (VWNKVKRWLER; AchR binding peptide) [Peptide L2-134]”, the OD under setting [2] amounted to 0.44.

“L3-153 (FHTKLRKPIPKIDM; AchR binding peptide) [Peptide L3-153]” returned an OD under setting [1] of 0.768.

In the case of “L3-155 (AWTRFRRFQCKGMS; AchR binding peptide) [Peptide L3-155]”, the OD under setting [1] was found to be 0.794.

RYKKQQYK [Peptide L1-167] showed an OD under setting [3] of 0.581.

Under setting [2], “L2-167 (MFMRNKKLAWR; AchR binding peptide) [Peptide L2-167]” gave an OD of 0.584.

For the substance RGKKQLSK [Peptide L1-121], under setting [3], the OD is on record as 0.354.

Consider “L3-44 (PPFRLRKPLWRPQR; AchR binding peptide) [Peptide L3-44]”, for which the OD under setting [1] was found to be 0.719.

Take “L2-62 (NLHKPKRDLPK; AchR binding peptide) [Peptide L2-62]”: the OD under setting [2] is listed as 0.736.

As to “L2-70 (QLLKMRKALSR; AchR binding peptide) [Peptide L2-70]”, under setting [2], the OD amounted to 0.67.

Take “L2-186 (PNWKVRRFGDK; AchR binding peptide) [Peptide L2-186]”: under setting [2], the OD came to 0.683.

For the substance RHKRMLWR [Peptide L1-131], the OD under setting [3] worked out at 0.505.

With “L2-35 (NFTKLRKPGPR; AchR binding peptide) [Peptide L2-35]”, the OD under setting [2] amounted to 0.683.

As for “L2-165 (AYPKFRKTFNR; AchR binding peptide) [Peptide L2-165]”, under setting [2], the OD is 0.718.

Under setting [3], KWRKRRIK [Peptide L1-46] displayed an OD of 0.637.

In the case of RGKRHWHR [Peptide L1-179], the OD under setting [3] is 0.633.

“L2-142 (DNPRFRKTILK; AchR binding peptide) [Peptide L2-142]” registered an OD under setting [2] of 0.512.

Turning to “L2-199 (EICKNRKPANR; AchR binding peptide) [Peptide L2-199]”, the OD under setting [2] is listed as 0.716.

Under setting [1], “L3-54 (FFLRCRRLLGKVQV; AchR binding peptide) [Peptide L3-54]” gave an OD of 0.784.

KDKRPECK [Peptide L1-133] showed an OD under setting [3] of 0.504.

“L3-160 (LTSRCKKTFQKNSE; AchR binding peptide) [Peptide L3-160]”: the OD under setting [1] amounted to 0.792.

Under setting [3], KAKRDYLR [Peptide L1-145] registered an OD of 0.54.

Consider “L2-77 (VADRQKKTAPK; AchR binding peptide) [Peptide L2-77]”, for which the OD under setting [2] was determined as 0.733.
